Measured values from publication PMC12615753, “Glutathione as a taste modulator: molecular mechanisms of interaction with umami and sweet taste receptors” (Food Chemistry: Molecular Sciences, 2025).
Where two headings read alike, the source gives them in different places. Each block holds one molecule with its values, some of them ahead of it.

Tests used:
[1] = biological target: T1, hTAS1R1/rTAS1R3 (UniProt Q7RTX1+Q923K1); test: Calcium assay (GCaMP6s, Gα15i2) in transiently transfected HEK293T/17 cells; assay type: cell-based, human, rat
T1 construct: UniProtKB number Q7RTX1–1); The cDNA coding region of rTAS1R3 was synthesized with optimized-codon usage for human expression; expressed in transfected cells; host or cells: HEK293T/17 (ATCC CRL-11268)
T1 sequence (Q7RTX1 21-841): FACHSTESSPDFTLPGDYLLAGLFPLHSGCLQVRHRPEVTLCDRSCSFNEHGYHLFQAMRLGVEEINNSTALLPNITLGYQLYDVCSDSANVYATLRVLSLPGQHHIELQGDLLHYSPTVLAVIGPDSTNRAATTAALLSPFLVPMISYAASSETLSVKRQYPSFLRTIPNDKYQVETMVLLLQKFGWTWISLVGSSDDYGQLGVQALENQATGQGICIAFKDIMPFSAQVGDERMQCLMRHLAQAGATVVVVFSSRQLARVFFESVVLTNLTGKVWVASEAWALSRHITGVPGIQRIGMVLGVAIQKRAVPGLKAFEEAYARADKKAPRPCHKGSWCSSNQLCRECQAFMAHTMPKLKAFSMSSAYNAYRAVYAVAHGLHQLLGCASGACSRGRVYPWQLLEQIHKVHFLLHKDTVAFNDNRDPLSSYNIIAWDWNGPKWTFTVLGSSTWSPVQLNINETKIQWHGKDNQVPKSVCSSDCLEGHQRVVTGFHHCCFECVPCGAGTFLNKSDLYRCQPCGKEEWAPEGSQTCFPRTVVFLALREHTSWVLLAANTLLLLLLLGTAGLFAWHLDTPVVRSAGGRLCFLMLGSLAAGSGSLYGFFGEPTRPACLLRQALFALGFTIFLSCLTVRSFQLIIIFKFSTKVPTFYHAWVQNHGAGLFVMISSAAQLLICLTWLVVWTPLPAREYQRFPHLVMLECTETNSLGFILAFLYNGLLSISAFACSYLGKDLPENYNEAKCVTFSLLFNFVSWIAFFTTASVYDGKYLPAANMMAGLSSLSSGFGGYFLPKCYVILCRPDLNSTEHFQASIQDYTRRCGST
T1 sequence (Q923K1 21-858): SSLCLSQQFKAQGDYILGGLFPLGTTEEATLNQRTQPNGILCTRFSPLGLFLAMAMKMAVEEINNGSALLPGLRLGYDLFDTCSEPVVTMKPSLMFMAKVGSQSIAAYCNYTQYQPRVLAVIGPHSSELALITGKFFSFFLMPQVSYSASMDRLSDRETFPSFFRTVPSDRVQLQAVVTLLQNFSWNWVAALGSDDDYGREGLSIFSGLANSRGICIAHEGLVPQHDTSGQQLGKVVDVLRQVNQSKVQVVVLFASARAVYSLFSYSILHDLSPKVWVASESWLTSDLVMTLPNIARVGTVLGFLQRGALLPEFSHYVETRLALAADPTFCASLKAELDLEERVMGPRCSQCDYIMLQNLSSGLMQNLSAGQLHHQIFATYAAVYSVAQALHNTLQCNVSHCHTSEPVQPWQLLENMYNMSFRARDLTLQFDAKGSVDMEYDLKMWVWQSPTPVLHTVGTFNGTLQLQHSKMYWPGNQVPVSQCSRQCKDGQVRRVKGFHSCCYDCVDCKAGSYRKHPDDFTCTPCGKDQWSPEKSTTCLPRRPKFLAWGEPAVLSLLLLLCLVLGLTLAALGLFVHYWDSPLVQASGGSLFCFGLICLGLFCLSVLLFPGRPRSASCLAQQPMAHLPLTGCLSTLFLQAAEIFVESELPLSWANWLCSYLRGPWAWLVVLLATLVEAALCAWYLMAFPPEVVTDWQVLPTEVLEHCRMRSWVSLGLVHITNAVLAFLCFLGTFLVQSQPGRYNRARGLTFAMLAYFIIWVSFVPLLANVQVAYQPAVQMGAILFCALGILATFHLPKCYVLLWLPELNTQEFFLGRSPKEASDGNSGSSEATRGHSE
Method: To this end, hTAS1R1/rTAS1R3 and the chimeric G protein Gα15i2 were transiently expressed in HEK293T cells. Cellular responses were assessed via calcium imaging using a fluorescent protein calcium biosensor (GCaMP6s) and compared with those of mock-transfected cells.

[2] = test system: umami perception; settings: ref Shigemura et al., 2009, cited from earlier work
[3] = biological target: hTAS1R1(A302W)/rTAS1R3 (human | rat) (UniProt Q7RTX1)
[4] = biological target: hTAS1R1(D192A)/rTAS1R3 (human | rat) (UniProt Q7RTX1)
[5] = biological target: hTAS1R1(Q278A)/rTAS1R3 (human | rat) (UniProt Q7RTX1)
[6] = biological target: hTAS1R1(A170W)/rTAS1R3 (human | rat) (UniProt Q7RTX1)
[7] = biological target: hTAS1R1(Q278Y)/rTAS1R3 (human | rat) (UniProt Q7RTX1)
[8] = biological target: hTAS1R1(H71A)/rTAS1R3 (human | rat) (UniProt Q7RTX1)
[9] = biological target: hTAS1R1(L223A)/rTAS1R3 (human | rat) (UniProt Q7RTX1)
[10] = biological target: hTAS1R1(R277A)/rTAS1R3 (human | rat) (UniProt Q7RTX1)
[11] = biological target: hTAS1R1(R151A)/rTAS1R3 (human | rat) (UniProt Q7RTX1)
[12] = biological target: hTAS1R1(Q278K)/rTAS1R3 (human | rat) (UniProt Q7RTX1)
[13] = biological target: hTAS1R1(H308A)/rTAS1R3 (human | rat) (UniProt Q7RTX1)
[14] = biological target: hTAS1R1(H71L)/rTAS1R3 (human | rat) (UniProt Q7RTX1)
[15] = biological target: hTAS1R1/rTAS1R3 umami taste receptor (wild type) (human | rat) (UniProt Q7RTX1)
[16] = biological target: hTAS1R2/rTAS1R3 sweet taste receptor (human | rat) (UniProt Q8TE23)
Chain of hTAS1R2/rTAS1R3 sweet taste receptor (human | rat) (Q8TE23 20-839): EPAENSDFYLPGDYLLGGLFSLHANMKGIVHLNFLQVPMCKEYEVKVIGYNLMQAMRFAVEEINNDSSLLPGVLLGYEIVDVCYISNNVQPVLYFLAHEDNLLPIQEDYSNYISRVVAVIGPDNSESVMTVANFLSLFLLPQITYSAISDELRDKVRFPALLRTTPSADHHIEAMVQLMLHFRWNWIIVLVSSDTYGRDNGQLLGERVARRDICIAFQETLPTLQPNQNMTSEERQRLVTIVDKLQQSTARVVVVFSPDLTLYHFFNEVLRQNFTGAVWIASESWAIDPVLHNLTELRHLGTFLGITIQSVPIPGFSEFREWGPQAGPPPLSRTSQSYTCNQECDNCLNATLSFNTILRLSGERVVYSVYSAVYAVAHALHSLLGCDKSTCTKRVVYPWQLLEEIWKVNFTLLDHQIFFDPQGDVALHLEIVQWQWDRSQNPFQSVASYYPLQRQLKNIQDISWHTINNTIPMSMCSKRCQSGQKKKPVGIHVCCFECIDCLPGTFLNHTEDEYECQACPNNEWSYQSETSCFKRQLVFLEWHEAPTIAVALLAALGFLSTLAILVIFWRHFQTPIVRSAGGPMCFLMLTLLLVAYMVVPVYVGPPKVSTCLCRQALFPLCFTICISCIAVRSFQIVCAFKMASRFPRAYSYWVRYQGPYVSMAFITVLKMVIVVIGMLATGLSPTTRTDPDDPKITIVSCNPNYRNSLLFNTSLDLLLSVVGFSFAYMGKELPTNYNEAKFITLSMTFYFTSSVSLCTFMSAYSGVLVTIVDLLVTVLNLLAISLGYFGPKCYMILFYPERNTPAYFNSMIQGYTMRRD

[17] = biological target: hTAS1R2/hTAS1R3 sweet taste receptor (human) (UniProt Q8TE23)
Chain of hTAS1R2/hTAS1R3 sweet taste receptor (human) (Q8TE23 20-839, chain 1 of 2): as the sequence (Q8TE23 20-839) above
Chain of hTAS1R2/hTAS1R3 sweet taste receptor (human) (Q7RTX0 21-852, chain 2 of 2, further chain): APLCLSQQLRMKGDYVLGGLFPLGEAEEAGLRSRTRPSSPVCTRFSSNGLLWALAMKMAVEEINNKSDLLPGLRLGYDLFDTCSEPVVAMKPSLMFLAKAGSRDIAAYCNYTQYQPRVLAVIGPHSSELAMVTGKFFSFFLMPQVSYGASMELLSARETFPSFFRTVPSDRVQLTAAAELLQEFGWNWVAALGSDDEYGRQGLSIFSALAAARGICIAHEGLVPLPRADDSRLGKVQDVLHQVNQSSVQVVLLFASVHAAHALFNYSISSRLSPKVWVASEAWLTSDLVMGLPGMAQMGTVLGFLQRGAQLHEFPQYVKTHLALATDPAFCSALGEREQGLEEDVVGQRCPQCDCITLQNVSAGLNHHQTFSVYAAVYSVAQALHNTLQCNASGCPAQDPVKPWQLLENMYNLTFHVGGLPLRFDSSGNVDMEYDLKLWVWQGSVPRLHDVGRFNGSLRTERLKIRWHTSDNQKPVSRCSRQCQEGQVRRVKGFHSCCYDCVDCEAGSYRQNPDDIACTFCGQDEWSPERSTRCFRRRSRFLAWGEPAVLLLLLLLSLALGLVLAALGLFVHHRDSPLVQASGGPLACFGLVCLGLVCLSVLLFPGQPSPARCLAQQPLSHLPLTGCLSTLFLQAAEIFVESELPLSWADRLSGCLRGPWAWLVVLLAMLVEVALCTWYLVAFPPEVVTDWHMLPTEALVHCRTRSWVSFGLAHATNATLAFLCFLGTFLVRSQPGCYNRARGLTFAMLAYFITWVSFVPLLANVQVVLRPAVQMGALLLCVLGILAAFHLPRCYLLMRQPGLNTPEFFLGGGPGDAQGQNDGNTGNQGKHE

[18] = biological target: hTAS1R1/rTAS1R3 umami taste receptor (wild type) (human | rat) (UniProt Q7RTX1); remark: listed apart in the source
[19] = biological target: hTAS1R1 subunit expressed alone (human) (UniProt Q7RTX1)

Molecule: N[C@@H](CCC(=O)N[C@@H](CS)C(=O)O)C(=O)O [Glu-Cys, γ-L-Glutamyl-L-cysteine]
EC50 ([1]; agonist alone, Fig. 1, Fig. S2): 3.2 ± 1.54 mM | max ∆F/F0 ([1]; agonist alone, Fig. 1, Fig. S2): 0.42 ± 0.07

Molecule: N[C@@H](CCC(=O)O)C(=O)[O-].[Na+] [MSG, monosodium glutamate]
sensory recognition threshold ([2]; MSG alone): 7.66 mM | sensory recognition threshold ([2]; in the presence of 0.05 mM IMP): 0.20 mM

Molecule: γ-L-Glutamyl-L-cysteine (peptide)
EC50 of Glu-Cys, calcium response (GCaMP6s fluorescence) of transfected HEK293T cells [18]: 3.2 mM

Other lines, results leading:

effect of the added 5′-ribonucleotide on the response to GSH ([1]; Fig. 6C–D): did not significantly increase | activation of the receptor ([1]; compound alone): did not activate
Molecule: Nc1nc2c(ncn2[C@@H]2O[C@H](COP(=O)(O)O)[C@@H](O)[C@H]2O)c(=O)[nH]1 [GMP, guanosine 5′-monophosphate, reference compound]

EC50 of GSH, calcium response of transfected HEK293 cells [3]: 5.32 mM | EC50 of GSH, calcium response of transfected HEK293 cells [4]: 3.25 mM | EC50 of GSH, calcium response of transfected HEK293 cells [5]: 3.42 mM | EC50 of GSH, calcium response of transfected HEK293 cells [6]: 5.29 mM | EC50 of GSH, calcium response of transfected HEK293 cells [7]: 3.96 mM | EC50 of GSH, calcium response of transfected HEK293 cells [8]: 2.03 mM | EC50 of GSH, calcium response of transfected HEK293 cells [9]: 2.32 mM | EC50 of GSH, calcium response of transfected HEK293 cells [10]: 1.84 mM | EC50 of GSH, calcium response of transfected HEK293 cells [11]: 2.59 mM | EC50 of GSH, calcium response of transfected HEK293 cells [12]: 5.66 mM | EC50 of GSH, calcium response of transfected HEK293 cells [13]: 3.25 mM | EC50 of GSH, calcium response of transfected HEK293 cells [14]: 2.27 mM | EC50 of GSH, calcium response of transfected HEK293 cells (mutant series) [15]: 2.52 mM | EC50 of GSH, calcium response of cells expressing the sweet taste receptor [16]: 4.06 mM | EC50 of GSH, calcium response of cells expressing the sweet taste receptor [17]: 0.591 mM | EC50 of GSH, calcium response (GCaMP6s fluorescence) of transfected HEK293T cells [18]: 2.15 mM | EC50 of GSH in the presence of 0.1 μM S807, calcium response of HEK293 cells expressing hTAS1R1 alone [19]: 0.281 mM
Molecule: Reduced L-glutathione (γ-L-glutamyl-L-cysteinyl-glycine) (peptide)
